Assay results published in article doi:10.1101/2024.10.29.620959v2.

Tests used:
[1] = substrate: CCCCCCCCCCCC(=O)O; experiment: purified protein; settings: pH 7.5
[2] = substrate: CCCCCCCCCCCCCCCC(=O)O; experiment: purified protein; settings: pH 7.5

B1: FadD5 (Mycobacterium tuberculosis H37Rv) (protein)
chain: MTAQLASHLTRALTLAQQQPYLARRQNWVNQLERHAMMQPDAPALRFVGNTMTWADLRRRVAALAGALSGRGVGFGDRVMILMLNRTEFVESVLAANMIGAIAVPLNFRLTPTEIAVLVEDCVAHVMLTEAALAPVAIGVRNIQPLLSVIVVAGGSSQDSVFGYEDLLNEAGDVHEPVDIPNDSPALIMYTSGTTGRPKGAVLTHANLTGQAMTALYTSGANINSDVGFVGVPLFHIAGIGNMLTGLLLGLPTVIYPLGAFDPGQLLDVLEAEKVTGIFLVPAQWQAVCTEQQARPRDLRLRVLSWGAAPAPDALLRQMSATFPETQILAAFGQTEMSPVTCMLLGEDAIAKRGSVGRVIPTVAARVVDQNMNDVPVGEVGEIVYRAPTLMSCYWNNPEATAEAFAGGWFHSGDLVRMDSDGYVWVVDRKKDMIISGGENIYCAELENVLASHPDIAEVAVIGRADEKWGEVPIAVAAVTNDDLRIEDLGEFLTDRLARYKHPKALEIVDALPRNPAGKVLKTELRLRYGACVNVERRSASAGFTERRENRQKL
[1]
  Km: 102 ± 8.55 µM
[2]
  Km: 89.83 ± 9.71 µM
